Test results: US6737058B2, “Methods for inhibiting endothelial cell and fibrinogen mediated inflammation using fibrinogen specific antibodies” (The Scripps Research Institute, priority 1992, dated 2004)
No end group written: not given here.

Experiments:
ICAM-1 = ICAM-1 (Homo sapiens, UniProt P05362); assay: 125I-labeled γ3 binding to ICAM-1 CHO transfectants
Experimental: A variant polypeptide γ3 (KYG-γ3) duplicating the fibrinogen γ chain sequence 117-133 N^117NQKIVNLKEKVAQLEA^133 (SEQ ID NO 2) was synthesized with the addition of Lys-Tyr-Gly residues at the amino terminus to facilitate radiolabeling of the polypeptide (KYGN^117NQKIVNLKEKVAQLEA^133, SEQ ID NO 4). The variant γ3 and L10 polypeptides were synthesized as described in Example 7A. Typically, 2 mg of KYG-γ3 were iodinated with 5 mCi ^125I-Na (Amersham, Arlington Heights, Ill.) by the IODO-GEN method (Fraker et al., Biochem Biophys Res Commun., 80:849-857, (1978)) for 45 min at 4° C. Free radioactivity was separated from polypeptide-bound radioactivity by gel-filtration over a Bio-Gel P-2 column (Bio-Rad, Richmond, Va.) which had been preequilibrated with PBS, pH 7.2, containing 0.01% BSA, with a flow rate of 0.2 ml/sec.
Confluent monolayers of ICAM-1 CHO transfectants or wild type (WT) CHO cells were incubated in serum-free RPMI 1640 medium with increasing concentrations of ^125I-labeled γ3 peptide (10-150 μg/ml) in the presence of 1 mM CaCl2 and 1 mM MgCl2 for 45 min at 22° C. Cells were washed with three rapid changes of serum-free RPMI 1640, solubilized in 10% SDS, and radioactivity associated under the various conditions tested was quantitated in a beta-counter. […]

WT CHO cells = assay: 125I-labeled γ3 binding to wild type CHO cells; parameters: species or system Chinese Hamster; conditions: 50 μg/ml
Experimental: Confluent monolayers of ICAM-1 CHO transfectants or wild type (WT) CHO cells were incubated in serum-free RPMI 1640 medium with increasing concentrations of ^125I-labeled γ3 peptide (10-150 μg/ml) in the presence of 1 mM CaCl2 and 1 mM MgCl2 for 45 min at 22° C. Cells were washed with three rapid changes of serum-free RPMI 1640, solubilized in 10% SDS, and radioactivity associated under the various conditions tested was quantitated in a beta-counter. Non specific binding was assessed in the presence of a 100-fold molar excess unlabeled γ3 peptide, or control peptide L10 added at the start of incubation, and was subtracted from the total as described above.

ICAM-1+ JY lymphocytes = assay: Adhesion of 51Cr-labeled JY lymphocytes to peptide-coated wells; type: cell-based; conditions: wells coated with 1-100 μg/ml peptide, 45 min at 37° C.
Experimental: Ninety-six well assay plates (Costar, Cambridge, Mass.) were coated with increasing concentrations (1-100 μg/ml) of the polypeptides γ3 and L10 in PBS, pH 7.2, for 18 h at 4° C. Wells were washed in PBS, pH 7.2 and blocked with 3% gelatin for 60 min at 37° C.
Serum-free suspensions of JY lymphocytes were labeled with 0.5 mCi ^51Cr (Na2CrO4, specific activity 487.4 mCi/mg, E. I., DuPont de Nemours, Wilmington, Del.) for 2 h at 37° C., with a final incorporation of 0.2-4 cpm/cell (Languino, et al., supra). Aliquots of ^51Cr-labeled JY lymphocytes at 1×10^6/ml were added to peptide-coated wells for 45 min at 37° C., washed, solubilized in 20% SDS, and radioactivity associated under the various conditions was determined in a scintillation beta-counter. The number of attached cells was quantitated by dividing the cpm harvested by the cpm/cell. Data are the mean ± S.D. of two independent experiments.

[1] = biological target: T1, ICAM-1 receptor on JY lymphocytes (Homo sapiens, UniProt P05362); assay: Inhibition of JY lymphocyte adhesion to γ3-coated plates by monoclonal antibodies; type: cell-based; conditions: plates coated with 20 μ/ml peptide, no antibody
T1 construct: endogenous in cells; host or cells: JY lymphocytes (51Cr-labelled)
T1 sequence (P05362 28-532): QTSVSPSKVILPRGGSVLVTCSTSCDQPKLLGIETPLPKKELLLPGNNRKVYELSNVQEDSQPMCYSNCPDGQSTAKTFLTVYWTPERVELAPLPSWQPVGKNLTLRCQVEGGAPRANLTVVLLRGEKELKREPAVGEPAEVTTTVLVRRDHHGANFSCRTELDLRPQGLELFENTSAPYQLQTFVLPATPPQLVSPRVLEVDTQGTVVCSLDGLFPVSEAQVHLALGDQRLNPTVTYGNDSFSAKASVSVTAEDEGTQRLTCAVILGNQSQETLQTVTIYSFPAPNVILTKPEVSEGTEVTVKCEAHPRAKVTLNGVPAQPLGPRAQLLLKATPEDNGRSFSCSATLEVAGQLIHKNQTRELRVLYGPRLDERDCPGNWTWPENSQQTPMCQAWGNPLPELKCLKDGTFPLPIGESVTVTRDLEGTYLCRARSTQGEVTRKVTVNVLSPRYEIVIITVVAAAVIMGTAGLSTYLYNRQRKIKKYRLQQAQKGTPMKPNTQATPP
Experimental: Binding inhibition assays were performed using radiolabeled ICAM-1^+ JY lymphocytes and the γ3 polypeptide. […] The peptides used in this assay were the γ3 and irrelevant polypeptide L10 prepared as described in Example 7A.
Ninety-six well assay plates were coated with 20 μ/ml of the polypeptides γ3 and L10 and the ^51Cr-labeled JY lymphocytes were prepared as described above. The ^51Cr-labeled JY lymphocytes were preincubated with saturating concentrations (25 μg/ml) of monoclonal antibodies anti-ICAM-1 1G12, 2D5, or 6E6; or anti-EPR-1 6A11 before incubation in the […] plates. Binding of radiolabelled JY lymphocytes was measured after a 45 min maintenance period in the presence of the monoclonal antibodies in the γ3 peptide-coated plate. Background binding was assessed by the incubation of ^51Cr-labeled JY lymphocytes which had not been preincubated with a monoclonal antibody in the L10 peptide-coated plate. Data are the mean ± S.D. of replicates of two independent experiments.

HUVEC [2] = assay: Adhesion of terminally-differentiated 51Cr-labeled HL-60 cells to resting HUVEC with plasma adhesive proteins; type: cell-based, human; conditions: for adhesion of differentiated HL-60 cells to HUVEC relative to cells not equilibrated with an adhesive protein: 150 μ/ml protein, fMLP 10 μM, 30 min at 22° C.
Experimental: The effect of fibrinogen, vitronectin, and fibronectin on the interaction of terminally-differentiated HL-60 and monocytic THP-1 cells with HUVEC was determined as described in Languino, supra. Briefly, serum-free suspensions of HL-60 or THP-1 cells were labeled with ^51Cr as described in Example 81A to a final incorporation of 0.2-4 cpm/cell. After washes in PBS, pH 7.2, aliquots of the HL-60 cells were resuspended in serum-free RPMI 1640 at 1.5×10^6/ml and stimulated with 10 μM of the chemoattractant formyl-methionyl-leucyl-phenylalanine (fMLP, Sigma, St. Louis, Mo.) and equilibrated with 150 μ/ml fibrinogen, vitronectin, or fibronectin in the presence of 1 mM CaCl2 for 20 min at 22° C. Equilibrated HL-60 were added to resting HUVEC monolayers that had been previously incubated with fresh complete culture medium 12 hours prior to the experiment and incubated for an additional 30 min at 22° C., washed,solubilized in 10-20% SDS, and associated radioactivity determined in a scintillation β-counter. The number of attached cells was quantitated by diving the cpm harvested by the cpm/cell. Under these experimental conditions, there was no aggregation of the various leukocyte subpopulations in the presence of the different plasma adhesive proteins, nor disruption of the HUVEC monolayers at any time interval tested, as judged by routine microscopic examination of the adhesion field. Data are the mean ± S.D. of triplicates from a representative experiment.
Experimental conditions were the same as described in Example 9C1 except that the ^51Cr-labeled HL-60 cells were equilibrated with 40 μg/ml vitronectin or control protein transferrin and added to resting HUVEC for increasing time intervals between 10 and 60 minutes at 22° C. before measurement of leukocyte adhesion.
Experimental conditions were the same as described in Example 9C1 except that the ^51Cr-labeled HL-60 cells were equilibrated with several concentrations of vitronectin ranging from 1.84 to 150 μg/ml and prior to incubation to resting HUVEC.

HUVEC [3] = assay: Iodinated D30 binding to HUVEC monolayers and its competition; parameters: species or system human; conditions: 50 fold molar excess of cold fibrinogen; myoglobin as nonspecific protein
Experimental: Binding assays described above in Example 3A2) were also performed with the fibrinogen homolog, D30, to determine if that region of fibrinogen also immunoreacted with HUVEC. Since D30 was known to bind to leukocytes via the Mac-1 receptor as described by Altieri et al., J. Biol. Chem., 265:12119-12122 (1990), these experiments were performed to determine if regions of fibrinogen mediating the binding of leukocytes to HUVEC are contained within the D30 fragment. For this analysis, the D30 fragment of fibrinogen prepared in Example 1B was labelled with ^125I as described for labelling of fibrinogen above. Iodinated D30 was admixed to HUVEC monolayers at a concentration of 10 μg/ml to form a binding complex. After washing the cells to remove the unbound D30 as described in Example 3A2) above, the cells were solubilized and the amount of bound radioactivity was determined. The binding of D30 to HUVEC was maximal at 120 minutes of the maintenance period with approximately 60,000 cpm.

HUVEC [4] = assay: Inhibition of 125I-labelled fibrinogen binding to HUVEC by cold fibrinogen, anti-VNR antibodies and RGD/RGE peptides; parameters: species or system human; conditions: anti-VNR antibody 25 μg/ml, 20 minutes at 37° C. preincubation
Experimental: Binding of ^125I-labelled fibrinogen binding to HUVEC assays were performed in the presence of 50 molar excess of unlabelled fibrinogen in order to confirm the specificity of binding as shown in Example 3A. The binding assay was performed as described in Example 3A with the exception that unlabelled fibrinogen was admixed to HUVEC at a 50 molar excess (approximately […] fibrinogen) concurrently with 50 μg/ml of ^125I-labelled fibrinogen. The protein-cell admixtures were maintained at 22° C. for 30 minutes to allow for binding of fibrinogen to HUVEC. In addition to cold fibrinogen, a 50 fold molar excess of BSA was separately admixed as a control. The amount of fibrinogen bound under the above conditions was quantitated as described in Example 3A. The uninhibited total binding of ^125I-labelled fibrinogen saturated after 30 minutes at approximately 4000 cpm per well. […] The binding of fibrinogen to the HUVEC surface fibrinogen receptor is therefore specific.
The specificity of binding to an RGD-independent fibrinogen receptor was confirmed in competition assays performed as described above in the presence of monoclonal antibodies against the beta subunit of the RGD-dependent VNR and in the presence of RGD-containing peptides. For the assays in which the ability of anti-VNR monoclonal antibodies, designated mAb 609 and mAb 7E3, to inhibit the binding of ^125I-labelled fibrinogen to HUVEC, the antibodies were separately maintained at a concentration of 25 μg/ml with HUVEC for 20 minutes at 37° C. After the maintenance period, the antibody-treated HUVEC were washed once with serum-free RPMI 1640 to remove any unbound antibody. Labelled fibrinogen was then admixed to the treated HUVEC at a concentration of 50 μg/ml in the presence of 2.5 mM CaCl2 and […] PPack. The resultant admixtures were maintained for 10-30 minutes at 22° C. The fibrinogen-treated HUVEC were then washed, solubilized and counted as described in Example 3A.
To confirm that the fibrinogen binding site on HUVEC was not RGD dependent, inhibition assays performed as described above for inhibiting with antibodies except that they were done in the presence of 1.0 mM of an RGD-containing peptide. A control RGE-containing peptide was also included in the assay. At selected time points over the time course of one hour, the HUVEC were harvested as described in Example 3A.

Chain of ICAM-1 (P05362 28-532): as above

KYGN^117NQKIVNLKEKVAQLEA^133 (KYGNNQKIVNLKEKVAQLEA; also: 125I radiolabel) [KYG-γ3]
binding of 125I-labeled γ3 polypeptide to ICAM-1 CHO transfectants (ICAM-1; 10-150 μg/ml, 1 mM CaCl2 and 1 mM MgCl2, 45 min at 22° C.): bound to ICAM-1 CHO transfectants in a specific and dose-dependent fashion
binding of 125I-labeled γ3 polypeptide to WT CHO cells (WT CHO cells): did not bind

LGGAKQAGDV (OTHER INFORMATION: synthesized) [L10, reference compound]
adhesion of JY lymphocytes to immobilized peptide (ICAM-1+ JY lymphocytes): did not support lymphocyte adhesion at any concentration tested
JY lymphocyte adhesion to L10-coated plate (background) [1]: did not support significant JY lymphocyte adhesion

NNQKIVNLKEKVAQLEA (OTHER INFORMATION: synthesized) [γ3]
adhesion of JY lymphocytes to immobilized peptide (ICAM-1+ JY lymphocytes): strongly adhered
competition of 125I-labeled γ3 polypeptide binding (ICAM-1; 100-fold molar excess unlabeled peptide): competitively inhibited

fibronectin
adhesion of differentiated HL-60 cells to HUVEC relative to cells not equilibrated with an adhesive protein (HUVEC [2]): did not result in an increase in adhesion

B1: Myoglobin: a nonspecific protein (protein, UniProt P68082 2-154, looked up)
Myoglobin: GLSDGEWQQVLNVWGKVEADIAGHGQEVLIRLFTGHPETLEKFDKFKHLKTEAEMKASEDLKKHGTVVLTALGGILKKKGHHEAELKPLAQSHATKHKIPIKYLEFISDAIIHVLHSKHPGDFGADAQGAMTKALELFRNDIAAKYKELGFQG
competition of D30 binding to HUVEC (HUVEC [3]): did not inhibit

B2: vitronectin: human vitronectin purchased from GIBCO or donated (protein, UniProt P04004 20-478, looked up)
Vitronectin: DQESCKGRCTEGFNVDKKCQCDELCSYYQSCCTDYTAECKPQVTRGDVFTMPEDEYTVYDDGEEKNNATVHEQVGGPSLTSDLQAQSKGNPEQTPVLKPEEEAPAPEVGASKPEGIDSRPETLHPGRPQPPAEEELCSGKPFDAFTDLKNGSLFAFRGQYCYELDEKAVRPGYPKLIRDVWGIEGPIDAAFTRINCQGKTYLFKGSQYWRFEDGVLDPDYPRNISDGFDGIPDNVDAALALPAHSYSGRERVYFFKGKQYWEYQFQHQPSQEECEGSSLSAVFEHFAMMQRDSWEDIFELLFWGRTSAGTRQPQFISRDWHGVPGQVDAAMAGRIYISGMAPRPSLAKKQRFRHRNRKGYRSQRGHSRGRNQNSRRPSRATWLSLFSSEESNLGANNYDDYRMDWLVPATCEPIQSVFFFSGDKYYRVNLRTRRVDTVDPPYPRSIAQYWLGCPAPGHL
time and dose dependency of vitronectin-mediated increase in HL-60 adhesion (HUVEC [2]; 10 to 60 minutes, 1.84 to 150 μg/ml): time-and dose-dependent manner
adhesion of differentiated HL-60 cells to HUVEC relative to cells not equilibrated with an adhesive protein (HUVEC [2]): three to four-fold
vitronectin concentration at which increase in HL-60 adhesion was saturated (HUVEC [2]; vitronectin 1.84 to 150 μg/ml): 50 µg/mL

B3: mAb 609: anti-VNR monoclonal antibody (antibody, V domains shown)
VH: EVQLEESGGGLVKPGGSLKLSCAASGFAFSSYDMSWVRQIPEKRLEWVAKVSSGGGSTYYLDTVQGRFTISRDNAKNTLYLQMSSLNSEDTAMYYCARHNYGSFAYWGQGTLVTVSA
VL: ELVMTQTPATLSVTPGDSVSLSCRASQSISNHLHWYQQKSHESPRLLIKYASQSISGIPSRFSGSGSGTDFTLSINSVETEDFGMYFCQQSNSWPHTFGGGTKLEIKRA
inhibition of 125I-labelled fibrinogen binding to HUVEC (FIG. 7) (HUVEC [4]): no inhibitory effect
